Laboratory results published in publication PMC3432913.

Target: Ptch1-GFP (mouse) (UniProt Q61115)
Assay: cell surface binding assay

Sequence of UniProt Q61115 (Q61115 whole entry): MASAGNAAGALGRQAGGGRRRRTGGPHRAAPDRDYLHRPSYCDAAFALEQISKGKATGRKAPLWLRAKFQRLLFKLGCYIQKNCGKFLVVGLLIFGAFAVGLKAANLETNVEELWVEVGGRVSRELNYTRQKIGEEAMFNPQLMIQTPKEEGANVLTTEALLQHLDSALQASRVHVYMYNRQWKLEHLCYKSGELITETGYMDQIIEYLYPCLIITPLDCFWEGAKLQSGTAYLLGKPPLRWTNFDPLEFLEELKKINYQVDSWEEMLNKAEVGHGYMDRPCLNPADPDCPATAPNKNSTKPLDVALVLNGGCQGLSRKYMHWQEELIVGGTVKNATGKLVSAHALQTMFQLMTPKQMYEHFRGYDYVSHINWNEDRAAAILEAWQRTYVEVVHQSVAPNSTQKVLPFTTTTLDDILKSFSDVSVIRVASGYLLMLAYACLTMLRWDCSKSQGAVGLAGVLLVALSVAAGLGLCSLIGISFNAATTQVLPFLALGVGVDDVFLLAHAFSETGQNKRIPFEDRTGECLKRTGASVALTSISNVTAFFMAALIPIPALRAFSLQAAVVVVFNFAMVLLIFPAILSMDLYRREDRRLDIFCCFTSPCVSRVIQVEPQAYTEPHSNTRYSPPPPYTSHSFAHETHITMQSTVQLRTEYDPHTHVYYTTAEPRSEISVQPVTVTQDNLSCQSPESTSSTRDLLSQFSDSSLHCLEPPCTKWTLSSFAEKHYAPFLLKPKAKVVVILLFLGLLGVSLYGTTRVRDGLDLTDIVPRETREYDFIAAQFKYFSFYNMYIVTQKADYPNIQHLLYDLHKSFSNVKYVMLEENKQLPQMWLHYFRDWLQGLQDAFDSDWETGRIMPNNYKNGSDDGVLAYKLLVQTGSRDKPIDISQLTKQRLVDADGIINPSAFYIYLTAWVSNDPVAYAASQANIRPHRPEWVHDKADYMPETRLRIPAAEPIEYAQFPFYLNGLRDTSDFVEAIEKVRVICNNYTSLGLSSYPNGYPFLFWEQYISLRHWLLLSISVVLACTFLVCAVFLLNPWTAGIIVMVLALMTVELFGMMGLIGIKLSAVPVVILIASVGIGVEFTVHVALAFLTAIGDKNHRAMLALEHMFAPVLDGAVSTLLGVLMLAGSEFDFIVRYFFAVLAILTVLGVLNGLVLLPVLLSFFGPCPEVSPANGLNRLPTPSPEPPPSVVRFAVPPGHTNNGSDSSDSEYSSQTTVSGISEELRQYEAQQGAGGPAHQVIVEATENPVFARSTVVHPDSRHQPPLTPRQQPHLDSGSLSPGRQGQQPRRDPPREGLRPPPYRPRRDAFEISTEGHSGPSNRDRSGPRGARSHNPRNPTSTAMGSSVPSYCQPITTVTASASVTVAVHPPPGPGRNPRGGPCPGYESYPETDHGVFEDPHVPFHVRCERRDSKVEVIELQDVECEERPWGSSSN

binding relative to Boc ecto-Fc	Substance
60%	Boc-Fc construct containing the FNIIIa domain alone (Fc fusion)
60%	Boc-Fc construct containing the FNIIIb domain alone (Fc fusion)
